Test results reported in article PMC3814001.

How the values were obtained:
[1] = target: PKA holoenzyme (PKA_(holo)) formed by wild-type RIIα and PKAc (mouse) (UniProt P12367); experiment: native gel or EMSA; SEC peak fraction on precast 3–8% Tris-Acetate native gels, 50 mM Tris pH 8.3, 50 mM Tricine, silver staining
[2] = target: RIIα (type IIα regulatory subunit of PKA), wild type, RIIα-6xHis (mouse) (UniProt P12367); experiment: as above
[3] = target: AKAP18γ–GFP (human)
[4] = target: AKAP18γ (human γ isoform of AKAP18), strep-II and 6xHis tagged (human)

AKAP18γ–GFP (human), sequence (Q9P0M2 whole entry, canonical isoform): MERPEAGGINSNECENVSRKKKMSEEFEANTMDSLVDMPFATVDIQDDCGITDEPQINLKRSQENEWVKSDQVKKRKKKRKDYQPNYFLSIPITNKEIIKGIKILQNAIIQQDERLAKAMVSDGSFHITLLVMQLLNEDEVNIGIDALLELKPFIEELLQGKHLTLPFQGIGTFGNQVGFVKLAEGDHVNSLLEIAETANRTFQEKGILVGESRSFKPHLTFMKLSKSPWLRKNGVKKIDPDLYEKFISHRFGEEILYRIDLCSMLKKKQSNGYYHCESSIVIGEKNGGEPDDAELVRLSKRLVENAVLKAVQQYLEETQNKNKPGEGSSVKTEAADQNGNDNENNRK

Which stoichiometry N (AKAP18γ per RIIα dimer with two PKAc) [1] does the source give for “AKAP18γ (human γ isoform of AKAP18), strep-II and 6xHis tagged (natural protein)” here?
The stoichiometry N (AKAP18γ per RIIα dimer with two PKAc) was 1.

“RIIα (type IIα regulatory subunit of PKA), wild type, RIIα-6xHis (from UniProt P12367 1-401) (natural protein; other documents disagree on this pair)” was tested. Which stoichiometry N [2] did it give?
Its stoichiometry N is 2 subunits.

With “PDE4D (type 4 phosphodiesterase isoforms PDE4D3 / PDE4D5) (enzyme)” as the substance, how does the cAMP phosphodiesterase activity in anti-GFP immune complexes from HEK293 cells, fold over GFP controls or rolipram-treated samples [3] read?
The cAMP phosphodiesterase activity in anti-GFP immune complexes from HEK293 cells, fold over GFP controls or rolipram-treated samples was 3.27 fold.

What about the basal (cAMP-independent) 32P incorporation into PDE4D by PKA holoenzyme with against without AKAP18γ, autoradiography; the substrate here was purified MBP-PDE4D3 [4] of the same substance?
Its basal (cAMP-independent) 32P incorporation into PDE4D by PKA holoenzyme with against without AKAP18γ, autoradiography; the substrate here was purified MBP-PDE4D3 is 1.87 fold.
